In article PMC5793033 (ACS Omega, 2018):

Biological target: the molecule itself

B1: NgDapB (4-hydroxy-tetrahydrodipicolinate reductase from Neisseria gonorrhoeae) (enzyme, UniProt B4RR35 1-269, looked up)
chain: MIPLKIAIAGANGRMGRVLVEAVNNHPDTVLSGALEHSGSEALGLDAGYAVGLKTGIAISDDVDAVLAQSDVLIDFTRPEPTLKHLQKCVEKQVNIIIGTTGFDDAGKAAIRAAAEKTGIVFAANFSVGVNLTFHILDTVARVLNEGYDIEIIEGHHRHKVDAPSGTALRMGEVIAGALGRDLKQCAVYGREGHTGPRDPSTIGFATVRAGDIVGDHTALFATDGERVEITHKAGSRMTFAAGAVRAAVWVNGKTGLYDMQDVLGLNNR
stoichiometry N: 4
